From patent US20260116920A1 (PEPTIDREAM, published 2026)
Starred links: 1 amine or outer side, 2 acyl side, 3 side chain; linkers in the order of their positions; H or OH if unused. Positions of bridges follow the written chain, without caps; N, C: chain ends. Non-standard residues stand in square brackets, D forms with d. Primed or numbered codes have the meaning given here. No end group written: not given here. MeF3COO(PEG4Me) = (S)-3-(3-((2,5,8,11-tetraoxatridecan-13-yl)carbamoyl)phenyl)-2-(methylamino)propanoic acid, COCCOCCOCCOCCNC(=O)c1cccc(C[C@@H](C(=O)[*:2])N(C)[*:1])c1; MeF4COO(PEG4Me)″ = N-methyl-4-carboxy-Phe with the carboxyl amidated by a methyl-capped PEG4 amine, COCCOCCOCCOCCNC(=O)c1ccc(C[C@@H](C(=O)[*:2])N(C)[*:1])cc1; F3COO(PEG4Me) = (S)-3-(3-((2,5,8,11-tetraoxatridecan-13-yl)carbamoyl)phenyl)-2-aminopropanoic acid, COCCOCCOCCOCCNC(=O)c1cccc(C[C@H](N[*:1])C(=O)[*:2])c1; F3COO(PEG4Me)″ = 3-carboxy-Phe with the carboxyl amidated by a methyl-capped PEG4 amine, COCCOCCOCCOCCNC(=O)c1cccc(C[C@H](N[*:1])C(=O)[*:2])c1; E(PEG4Me) = (S)-18-amino-15-oxo-2,5,8,11-tetraoxa-14-azanonadecane-19-oic acid, COCCOCCOCCOCCNC(=O)CC[C@H](N[*:1])C(=O)[*:2]; MeF4COO(PEG4Me) = N-methyl Phe with 4-carboxamide to PEG4Me amine, COCCOCCOCCOCCNC(=O)c1ccc(C[C@@H](C(=O)[*:2])N(C)[*:1])cc1; KCOpipzaa = N6-(4-(carboxymethyl)piperazine-1-carbonyl)-L-lysine, O=C(NCCCC[C@H](N[*:1])C(=O)[*:2])N1CCN(CC(=O)[*:3])CC1; Phe(4-OMe)(3) = (S)-2-amino-3-(4-methoxyphenyl)propanoic acid (source code F4OMe), COc1ccc(C[C@H](N[*:1])C(=O)[*:2])cc1; F4aao = (S)-2-amino-3-(4-(carboxymethoxy)phenyl)propanoic acid, O=C([C@H](Cc1ccc(OCC(=O)[*:3])cc1)N[*:1])[*:2]; Trp(1-CH2CO) = O=C([C@H](Cc1cn(CC(=O)[*:3])c2ccccc12)N[*:1])[*:2]; MeF3COO(PEG4Me)″ = N-methyl analogue of F3COO(PEG4Me); Trp(5-Cl) = N[C@@H](Cc1c[nH]c2ccc(Cl)cc12)C(=O)O; Nle(6-morpholino) = N[C@@H](CCCCN1CCOCC1)C(=O)O; Trp(7-aza) = N[C@@H](Cc1c[nH]c2ncccc12)C(=O)O; NMePhe(3-Cl) = CN[C@@H](Cc1cccc(Cl)c1)C(=O)O; NMePhe(4-F) = CN[C@@H](Cc1ccc(F)cc1)C(=O)O; 3Pal(6-NH2) = Nc1ccc(C[C@H](N)C(=O)O)cn1; NMeY = CN[C@@H](Cc1ccc(O)cc1)C(=O)O; Lys(Me2) = CN(C)CCCC[C@H](N)C(=O)O; NMeF = CN[C@@H](Cc1ccccc1)C(=O)O; 4Pal = N[C@@H](Cc1ccncc1)C(=O)O

Molecular target: T1, human transferrin receptor (hTfR) (human, UniProt P02786 89-760)
T1 construct: used as 0.5 uM hTfR dimer solution, immobilised on an NTA sensor chip (Ni capture plus EDC/NHS coupling); also called human TfR; TfR1
Experiment: SPR; B = KD 1-100 nM
Method: NTA sensor chip (Global Life Sciences Technologies Japan K.K.) was inserted into BiacoreT200 (Global Life Sciences Technologies Japan K.K.), then the priming operation was performed three times by using running buffer containing: 10 mM HEPES pH 8.0 (Nacalai Tesque, Inc.), 150 mM NaCl (Nacalai Tesque, Inc.), 0.05% Tween 20 (Nacalai Tesque, Inc.), 0.1% BSA (SIGMA-ALDRICH) and 1.0% DMSO (FUJIFILM Wako Pure Chemical Corporation), and equilibrated at a flow rate of 30 μL/min. 350 mM EDTA solution was reacted at a flow rate of 10 μL/min for 60 seconds, 0.5 mM […] solution (Kishida Chemical Co., Ltd.) was reacted at a flow rate of 10 μL/min for 60 seconds, and then the NTA sensor chip was washed with 3 mM EDTA solution (Nacalai Tesque, Inc.) at a flow rate of 10 μL/min for 60 seconds. After mixing 50 μL each of 60 mM EDC solution (Global Life Science Technologies Japan K.K.) and 650 mM NHS solution (Global Life Science Technologies Japan K.K.), the reaction was carried out at a flow rate of 10 μL/min for 420 seconds. 150 μL of 0.5 μM hTfR dimer solution was prepared by dilution with running buffer and reacted at a flow rate of 10 μL/min for 300 seconds to immobilize hTfR on the NTA sensor chip. For the human transferrin receptor (hTfR), recombinant hTfR described in Example 2 of WO2018/124121 was used. After immobilization, capping was performed by reacting with 1.0 M ethanolamine solution (Global Life Sciences Technologies Japan K.K.) at a flow rate of 10 μL/min for 420 seconds. Peptide lysate prepared in DMSO solution to 10 mM was diluted with running buffer to be a final concentration of 10 μM peptide lysate, then peptide solutions of 100 nM, 50 nM, 25 nM, 10 nM, and 5 nM were prepared. Using the above samples, the kinetics of the peptide against hTfR was obtained by SPR measurement.
The kinetic evaluation model was single-cycle kinetics, and curve fitting was performed using Biacore T200 Evaluation Software Version 3.0 (Global Life Science Technologies Japan K.K.). The binding of the peptide to hTfR was evaluated by performing curve fitting on the obtained sensorgram by least squares method and obtaining the KD value.

T1 sequence (P02786 89-760 limits assumed): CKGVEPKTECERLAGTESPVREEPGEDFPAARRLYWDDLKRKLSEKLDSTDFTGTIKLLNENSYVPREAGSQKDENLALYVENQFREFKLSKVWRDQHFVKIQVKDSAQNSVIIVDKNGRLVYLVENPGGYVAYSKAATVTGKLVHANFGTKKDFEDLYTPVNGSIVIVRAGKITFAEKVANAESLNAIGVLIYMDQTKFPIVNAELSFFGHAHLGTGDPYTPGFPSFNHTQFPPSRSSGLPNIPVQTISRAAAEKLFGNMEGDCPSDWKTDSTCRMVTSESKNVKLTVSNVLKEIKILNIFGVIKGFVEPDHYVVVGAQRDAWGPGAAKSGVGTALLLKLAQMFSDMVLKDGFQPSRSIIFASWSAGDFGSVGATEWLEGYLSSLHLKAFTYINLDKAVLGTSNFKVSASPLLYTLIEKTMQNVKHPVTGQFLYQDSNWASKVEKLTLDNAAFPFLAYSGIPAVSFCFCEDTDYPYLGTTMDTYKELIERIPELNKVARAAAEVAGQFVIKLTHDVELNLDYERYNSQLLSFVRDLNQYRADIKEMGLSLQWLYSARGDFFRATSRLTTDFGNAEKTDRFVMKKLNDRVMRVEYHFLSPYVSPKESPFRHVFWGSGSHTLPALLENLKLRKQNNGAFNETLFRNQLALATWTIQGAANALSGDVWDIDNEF

Binder	KD [nM]
{CH2CO}-AV[NMePhe(3-Cl)]VWNY[Phe(4-OMe)(3)]IIRRF[NMeY]C (thioether N-15; not fully specified (C-terminus)) [894_3149]	1 to 100
{CH2CO}-AV[NMePhe(3-Cl)]VWNY[F4aao]II[E(PEG4Me)][Lys(Me2)]F[NMeY]C-NH2 (thioether N-15; also: linker PEG4c, attachment site not given here) [849_0407]	1 to 100
{CH2CO}-AV[NMePhe(3-Cl)]V[Trp(7-aza)]NY[F4aao]IIQR[F3COO(PEG4Me)][MeF3COO(PEG4Me)″]C-NH2 (thioether N-15; also: linker PEG4c, place not given here) [849_0417]	1 to 100
{CH2CO}-AV[NMePhe(3-Cl)]VWNY[F4aao]II[E(PEG4Me)][Nle(6-morpholino)]F[NMeY]C-NH2 (thioether N-15; also: linker PEG4c, attachment site not given here) [849_0405]	1 to 100
{CH2CO}-AV[NMePhe(3-Cl)]VWNY[F4aao]II[E(PEG4Me)]R[E(PEG4Me)][NMeY]C-NH2 (thioether N-15; also: linker PEG4c, attachment site not given here) [849_0409]	1 to 100
{CH2CO}-AV[NMePhe(3-Cl)]VWNY[F4aao]IIQR[F3COO(PEG4Me)″][MeF4COO(PEG4Me)″]C-NH2 (thioether N-15; also: linker PEG4c, attachment site not given here) [849_0412]	1 to 100
{CH2CO}-AV[NMePhe(3-Cl)]VWNY[F4aao]II[E(PEG4Me)][KCOpipzaa]F[NMeY]C-NH2 (thioether N-15; also: linker PEG4c, place not given here) [849_0401]	1 to 100
{CH2CO}-AV[NMePhe(3-Cl)]VWNY[F4aao]II[E(PEG4Me)]R[F3COO(PEG4Me)″][NMeY]C-NH2 (thioether N-15; also: linker PEG4c, attachment site not given here) [849_0411]	1 to 100
{CH2CO}-AV[NMePhe(3-Cl)]VWNY[F4aao]II[E(PEG4Me)]KF[NMeY]C-NH2 (thioether N-15; also: linker PEG4c, attachment site not given here) [849_0406]	1 to 100
{CH2CO}-AV[NMePhe(3-Cl)]V[Trp(7-aza)]NY[F4aao]IIQR[F3COO(PEG4Me)][MeF4COO(PEG4Me)]C-NH2 (thioether N-15; also: linker PEG4c, attachment site not given here, also called 894_0416) [849_0416]	1 to 100
{CH2CO}-AV[NMePhe(3-Cl)]V[Trp(1-CH2CO)]NY[F4aao]II[E(PEG4Me)][KCOpipzaa]F[NMeY]C-NH2 (thioether N-15; also: linker PEG4c, place not given here) [849_0400]	1 to 100
{CH2CO}-AV[NMePhe(3-Cl)]VWNY[F4aao]IIQR[F3COO(PEG4Me)″][MeF3COO(PEG4Me)]C-NH2 (thioether N-15; also: linker PEG4c, attachment site not given here) [849_0413]	1 to 100
{CH2CO}-AV[NMePhe(3-Cl)]VWN[3Pal(6-NH2)][F4aao]II[E(PEG4Me)][KCOpipzaa][4Pal][NMeY]C-NH2 (thioether N-15; also: linker PEG4c, attachment site not given here) [849_0403]	1 to 100
{CH2CO}-AV[NMePhe(3-Cl)]VWNY[F4aao]II[E(PEG4Me)]R[E(PEG4Me)][NMeY]C-NH2 (thioether N-15; also: linker G-ds-ds-ds-ds-ds, attachment site not given here) [849_0410]	1 to 100
{CH2CO}-AV[NMePhe(3-Cl)]VWNY[F4aao]II[E(PEG4Me)]RF[NMeY]C-NH2 (thioether N-15; also: linker PEG4c, place not given here) [849_0398]	1 to 100
{CH2CO}-AV[NMePhe(3-Cl)]VWNY[F4aao]II[E(PEG4Me)]QF[NMeY]C-NH2 (thioether N-15; also: linker PEG4c, attachment site not given here) [849_0408]	1 to 100
{CH2CO}-AV[NMePhe(3-Cl)]V[Trp(7-aza)]NY[F4aao]IIERFYC-NH2 (thioether N-15; not fully specified (residues 11, 14); also: linker PEG4c, place not given here) [849_0418]	1 to 100
{CH2CO}-AV[NMePhe(4-F)]V[Trp(5-Cl)]NYYIIR[dR]FYC-NH2 (thioether N-15; not fully specified (residue 14); also: linker PEG4c, place not given here) [894_0256]	1 to 100
{CH2CO}-AV[NMePhe(3-Cl)]V[Trp(7-aza)]NY[F4aao]II[E(PEG4Me)]R[F3COO(PEG4Me)][NMeY]C-NH2 (thioether N-15; also: linker PEG4c, attachment site not given here) [849_0415]	1 to 100
{CH2CO}-AV[NMePhe(3-Cl)]VWNY[F4aao]IIQR[F3COO(PEG4Me)][MeF3COO(PEG4Me)″]C-NH2 (thioether N-15; also: linker G-ds-ds-ds-ds-ds, attachment site not given here) [849_0414]	1 to 100
{CH2CO}-AV[NMePhe(3-Cl)]V[Trp(1-CH2CO)]N[3Pal(6-NH2)][F4aao]II[E(PEG4Me)]R[4Pal][NMeY]C-NH2 (thioether N-15; also: linker PEG4c, place not given here) [849_0402]	1 to 100
{CH2CO}-AV[NMeF]V[Trp(5-Cl)]NYYIIR[dR]FYC-NH2 (thioether N-15; not fully specified (residue 14); also: linker PEG4c, place not given here) [894_0252]	1 to 100
